Among the data in patent US20150344570A1 (published 2015) are He/Con_2aR values, retold here.

T1: FcγRIIa R (human, UniProt P12318 34-217)
T1 construct: extracellular domain; also called FcgRIIa R type; 2aR
T1 sequence (looked up): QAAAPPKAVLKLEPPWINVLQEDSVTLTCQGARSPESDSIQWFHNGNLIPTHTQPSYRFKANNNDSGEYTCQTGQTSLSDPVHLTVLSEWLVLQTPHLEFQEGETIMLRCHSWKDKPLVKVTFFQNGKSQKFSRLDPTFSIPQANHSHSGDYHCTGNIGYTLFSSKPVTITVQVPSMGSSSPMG

B1: GpH7-A5/GpH7-B3 variant H268_20W/GpL16-k0 (antibody, human IgG1, kappa)
heavy 1: not shown
heavy 2: not shown
light: DIVMTQSPLSLPVTPGEPASISCQASESLVHSNRNTYLHWYLQKPGQSPQLLIYKVSNRFSGVPDRFSGSGSGTDFTLKISRVEAEDVGVYYCSQNTHVPPTFGQGTKVEIERTVAAPSVFIFPPSDEQLKSGTASVVCLLNNFYPREAKVQWKVDNALQSGNSQESVTEQDSKDSTYSLSSTLTLSKADYEKHKVYACEVTHQGLSSPVTKSFNRGEC
notes: also called He Ab H268_20W
B2: GpH7-A5/GpH7-B3 variant I332_06M/GpL16-k0 (antibody, human IgG1, kappa)
heavy 1: not shown
heavy 2: not shown
light: DIVMTQSPLSLPVTPGEPASISCQASESLVHSNRNTYLHWYLQKPGQSPQLLIYKVSNRFSGVPDRFSGSGSGTDFTLKISRVEAEDVGVYYCSQNTHVPPTFGQGTKVEIERTVAAPSVFIFPPSDEQLKSGTASVVCLLNNFYPREAKVQWKVDNALQSGNSQESVTEQDSKDSTYSLSSTLTLSKADYEKHKVYACEVTHQGLSSPVTKSFNRGEC
notes: also called He Ab I332_06M
B3: GpH7-A5/GpH7-B3 variant K326_07I/GpL16-k0 (antibody, human IgG1, kappa)
heavy 1: not shown
heavy 2: not shown
light: DIVMTQSPLSLPVTPGEPASISCQASESLVHSNRNTYLHWYLQKPGQSPQLLIYKVSNRFSGVPDRFSGSGSGTDFTLKISRVEAEDVGVYYCSQNTHVPPTFGQGTKVEIERTVAAPSVFIFPPSDEQLKSGTASVVCLLNNFYPREAKVQWKVDNALQSGNSQESVTEQDSKDSTYSLSSTLTLSKADYEKHKVYACEVTHQGLSSPVTKSFNRGEC
notes: also called He Ab K326_07I
B4: GpH7-A5/GpH7-B3 variant K326_03V/GpL16-k0 (antibody, human IgG1, kappa)
heavy 1: not shown
heavy 2: not shown
light: DIVMTQSPLSLPVTPGEPASISCQASESLVHSNRNTYLHWYLQKPGQSPQLLIYKVSNRFSGVPDRFSGSGSGTDFTLKISRVEAEDVGVYYCSQNTHVPPTFGQGTKVEIERTVAAPSVFIFPPSDEQLKSGTASVVCLLNNFYPREAKVQWKVDNALQSGNSQESVTEQDSKDSTYSLSSTLTLSKADYEKHKVYACEVTHQGLSSPVTKSFNRGEC
notes: also called He Ab K326_03V
B5: GpH7-A5/GpH7-B3 variant I336_18N/GpL16-k0 (antibody, human IgG1, kappa)
heavy 1: not shown
heavy 2: not shown
light: DIVMTQSPLSLPVTPGEPASISCQASESLVHSNRNTYLHWYLQKPGQSPQLLIYKVSNRFSGVPDRFSGSGSGTDFTLKISRVEAEDVGVYYCSQNTHVPPTFGQGTKVEIERTVAAPSVFIFPPSDEQLKSGTASVVCLLNNFYPREAKVQWKVDNALQSGNSQESVTEQDSKDSTYSLSSTLTLSKADYEKHKVYACEVTHQGLSSPVTKSFNRGEC
notes: also called He Ab I336_18N
B6: GpH7-A5/GpH7-B3 variant K334_02A/GpL16-k0 (antibody, human IgG1, kappa)
heavy 1: not shown
heavy 2: not shown
light: DIVMTQSPLSLPVTPGEPASISCQASESLVHSNRNTYLHWYLQKPGQSPQLLIYKVSNRFSGVPDRFSGSGSGTDFTLKISRVEAEDVGVYYCSQNTHVPPTFGQGTKVEIERTVAAPSVFIFPPSDEQLKSGTASVVCLLNNFYPREAKVQWKVDNALQSGNSQESVTEQDSKDSTYSLSSTLTLSKADYEKHKVYACEVTHQGLSSPVTKSFNRGEC
notes: also called He Ab K334_02A
B7: GpH7-A5/GpH7-B3 variant K326_04F/GpL16-k0 (antibody, human IgG1, kappa)
heavy 1: not shown
heavy 2: not shown
light: DIVMTQSPLSLPVTPGEPASISCQASESLVHSNRNTYLHWYLQKPGQSPQLLIYKVSNRFSGVPDRFSGSGSGTDFTLKISRVEAEDVGVYYCSQNTHVPPTFGQGTKVEIERTVAAPSVFIFPPSDEQLKSGTASVVCLLNNFYPREAKVQWKVDNALQSGNSQESVTEQDSKDSTYSLSSTLTLSKADYEKHKVYACEVTHQGLSSPVTKSFNRGEC
notes: also called He Ab K326_04F
B8: GpH7-A5/GpH7-B3 variant K326_20W/GpL16-k0 (antibody, human IgG1, kappa)
heavy 1: not shown
heavy 2: not shown
light: DIVMTQSPLSLPVTPGEPASISCQASESLVHSNRNTYLHWYLQKPGQSPQLLIYKVSNRFSGVPDRFSGSGSGTDFTLKISRVEAEDVGVYYCSQNTHVPPTFGQGTKVEIERTVAAPSVFIFPPSDEQLKSGTASVVCLLNNFYPREAKVQWKVDNALQSGNSQESVTEQDSKDSTYSLSSTLTLSKADYEKHKVYACEVTHQGLSSPVTKSFNRGEC
notes: also called He Ab K326_20W
B9: GpH7-A5/GpH7-B3 variant I336_08L/GpL16-k0 (antibody, human IgG1, kappa)
heavy 1: not shown
heavy 2: not shown
light: DIVMTQSPLSLPVTPGEPASISCQASESLVHSNRNTYLHWYLQKPGQSPQLLIYKVSNRFSGVPDRFSGSGSGTDFTLKISRVEAEDVGVYYCSQNTHVPPTFGQGTKVEIERTVAAPSVFIFPPSDEQLKSGTASVVCLLNNFYPREAKVQWKVDNALQSGNSQESVTEQDSKDSTYSLSSTLTLSKADYEKHKVYACEVTHQGLSSPVTKSFNRGEC
notes: also called He Ab I336_08L
B10: GpH7-A5/GpH7-B3 variant K326_15Y/GpL16-k0 (antibody, human IgG1, kappa)
heavy 1: not shown
heavy 2: not shown
light: DIVMTQSPLSLPVTPGEPASISCQASESLVHSNRNTYLHWYLQKPGQSPQLLIYKVSNRFSGVPDRFSGSGSGTDFTLKISRVEAEDVGVYYCSQNTHVPPTFGQGTKVEIERTVAAPSVFIFPPSDEQLKSGTASVVCLLNNFYPREAKVQWKVDNALQSGNSQESVTEQDSKDSTYSLSSTLTLSKADYEKHKVYACEVTHQGLSSPVTKSFNRGEC
notes: also called He Ab K326_15Y
B11: GpH7-A5/GpH7-B3 variant K326_18N/GpL16-k0 (antibody, human IgG1, kappa)
heavy 1: not shown
heavy 2: not shown
light: DIVMTQSPLSLPVTPGEPASISCQASESLVHSNRNTYLHWYLQKPGQSPQLLIYKVSNRFSGVPDRFSGSGSGTDFTLKISRVEAEDVGVYYCSQNTHVPPTFGQGTKVEIERTVAAPSVFIFPPSDEQLKSGTASVVCLLNNFYPREAKVQWKVDNALQSGNSQESVTEQDSKDSTYSLSSTLTLSKADYEKHKVYACEVTHQGLSSPVTKSFNRGEC
notes: also called He Ab K326_18N
B12: GpH7-A5/GpH7-B3 variant I336_06M/GpL16-k0 (antibody, human IgG1, kappa)
heavy 1: not shown
heavy 2: not shown
light: DIVMTQSPLSLPVTPGEPASISCQASESLVHSNRNTYLHWYLQKPGQSPQLLIYKVSNRFSGVPDRFSGSGSGTDFTLKISRVEAEDVGVYYCSQNTHVPPTFGQGTKVEIERTVAAPSVFIFPPSDEQLKSGTASVVCLLNNFYPREAKVQWKVDNALQSGNSQESVTEQDSKDSTYSLSSTLTLSKADYEKHKVYACEVTHQGLSSPVTKSFNRGEC
notes: also called He Ab I336_06M
B13: GpH7-A5/GpH7-B3 variant K326_12R/GpL16-k0 (antibody, human IgG1, kappa)
heavy 1: not shown
heavy 2: not shown
light: DIVMTQSPLSLPVTPGEPASISCQASESLVHSNRNTYLHWYLQKPGQSPQLLIYKVSNRFSGVPDRFSGSGSGTDFTLKISRVEAEDVGVYYCSQNTHVPPTFGQGTKVEIERTVAAPSVFIFPPSDEQLKSGTASVVCLLNNFYPREAKVQWKVDNALQSGNSQESVTEQDSKDSTYSLSSTLTLSKADYEKHKVYACEVTHQGLSSPVTKSFNRGEC
notes: also called He Ab K326_12R
B14: GpH7-A5/GpH7-B3 variant K326_08L/GpL16-k0 (antibody, human IgG1, kappa)
heavy 1: not shown
heavy 2: not shown
light: DIVMTQSPLSLPVTPGEPASISCQASESLVHSNRNTYLHWYLQKPGQSPQLLIYKVSNRFSGVPDRFSGSGSGTDFTLKISRVEAEDVGVYYCSQNTHVPPTFGQGTKVEIERTVAAPSVFIFPPSDEQLKSGTASVVCLLNNFYPREAKVQWKVDNALQSGNSQESVTEQDSKDSTYSLSSTLTLSKADYEKHKVYACEVTHQGLSSPVTKSFNRGEC
notes: also called He Ab K326_08L
B15: GpH7-A5/GpH7-B3 variant I332_14T/GpL16-k0 (antibody, human IgG1, kappa)
heavy 1: not shown
heavy 2: not shown
light: DIVMTQSPLSLPVTPGEPASISCQASESLVHSNRNTYLHWYLQKPGQSPQLLIYKVSNRFSGVPDRFSGSGSGTDFTLKISRVEAEDVGVYYCSQNTHVPPTFGQGTKVEIERTVAAPSVFIFPPSDEQLKSGTASVVCLLNNFYPREAKVQWKVDNALQSGNSQESVTEQDSKDSTYSLSSTLTLSKADYEKHKVYACEVTHQGLSSPVTKSFNRGEC
notes: also called He Ab I332_14T
B16: GpH7-A5/GpH7-B3 variant K334_04F/GpL16-k0 (antibody, human IgG1, kappa)
heavy 1: not shown
heavy 2: not shown
light: DIVMTQSPLSLPVTPGEPASISCQASESLVHSNRNTYLHWYLQKPGQSPQLLIYKVSNRFSGVPDRFSGSGSGTDFTLKISRVEAEDVGVYYCSQNTHVPPTFGQGTKVEIERTVAAPSVFIFPPSDEQLKSGTASVVCLLNNFYPREAKVQWKVDNALQSGNSQESVTEQDSKDSTYSLSSTLTLSKADYEKHKVYACEVTHQGLSSPVTKSFNRGEC
notes: also called He Ab K334_04F

This test addresses T1, FcγRIIa R. Briefly: SPR (Biacore), captured antibody, FcγR as analyte; relative binding activity. For orientation: SPR reads the build-up and loss of mass on a sensor chip optically.
As to B1, the He/Con_2aR is 113 % (GpH7-A5/GpH7-B3/GpL16-k0 = 100).

Consider B2, for which the He/Con_2aR was 109 % (GpH7-A5/GpH7-B3/GpL16-k0 = 100). The result for B3 reads 147 % (GpH7-A5/GpH7-B3/GpL16-k0 = 100); that for B4, 141 % (GpH7-A5/GpH7-B3/GpL16-k0 = 100); that for B5, 104 % (GpH7-A5/GpH7-B3/GpL16-k0 = 100). With B6, the He/Con_2aR is 105 % (GpH7-A5/GpH7-B3/GpL16-k0 = 100).

As for B7, the He/Con_2aR is 135 % (GpH7-A5/GpH7-B3/GpL16-k0 = 100). B8: the He/Con_2aR was 131 % (GpH7-A5/GpH7-B3/GpL16-k0 = 100).

With B9, the He/Con_2aR was 110 % (GpH7-A5/GpH7-B3/GpL16-k0 = 100).

As to B10, the He/Con_2aR was 136 % (GpH7-A5/GpH7-B3/GpL16-k0 = 100). For B11, the He/Con_2aR was 115 % (GpH7-A5/GpH7-B3/GpL16-k0 = 100).

For B12, the He/Con_2aR was 106 % (GpH7-A5/GpH7-B3/GpL16-k0 = 100). As to B13, the He/Con_2aR is 103 % (GpH7-A5/GpH7-B3/GpL16-k0 = 100). The figure for B14 is 137 % (GpH7-A5/GpH7-B3/GpL16-k0 = 100); for B15 it is 105 % (GpH7-A5/GpH7-B3/GpL16-k0 = 100).

B16: the He/Con_2aR is 110 % (GpH7-A5/GpH7-B3/GpL16-k0 = 100).
